In patent US20060008800A1 (published 2006):

How the values were obtained:
Ca2+/Calmodulin = Ca2+/Calmodulin (UniProt P0DP23 2-149); assay: tryptophane fluorescence, 10 µM peptide, equimolar Calmodulin, excess calcium
[1] = molecular target: Apocalmodulin (Calcium-free Calmodulin) (UniProt P0DP23 2-149); assay: tryptophane fluorescence, 10 µM peptide, equimolar Apocalmodulin, 1 mM EGTA

- binding result (Ca2+/Calmodulin): binds
- binding result [1]: binds
B1: Munc13-1 peptide reflecting the Calmodulin binding site of rat Munc13-1 (peptide)
peptide: CRAKANWLRAFNKVRMQLQEAR
notes: Synthesized and purified by standard procedures; used at 10 uM in the tryptophane fluorescence assay; also called peptide 13-1; Munc13-1 derived peptide
